Two molecules from CN114685670A (SHANGHAI LYOFIE MEDICAL SCIENCE AND TECH LIMITED COMPANY, dated 2022) can be followed below.

In experiment [1] the target is T1, human CLDN18.2 (human, UniProt P56856-2 1-261).
T1 construct: whole, on cells; also called hCLDN18.2; Claudin 18.2
T1 sequence (looked up): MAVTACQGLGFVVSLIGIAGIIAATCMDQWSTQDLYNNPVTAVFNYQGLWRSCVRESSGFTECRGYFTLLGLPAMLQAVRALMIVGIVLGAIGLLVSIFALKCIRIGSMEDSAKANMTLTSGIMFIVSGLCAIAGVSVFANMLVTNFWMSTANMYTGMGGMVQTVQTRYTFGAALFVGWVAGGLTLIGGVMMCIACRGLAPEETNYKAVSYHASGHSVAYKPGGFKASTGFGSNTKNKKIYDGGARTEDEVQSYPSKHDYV
The experiment is described as follows: flow cytometry on 18.2-K562 cells, 8-point antibody dilution, Anti-Human IgG FITC detection. (A flow cytometer gives signals particle by particle.)

For experiment [2], the target named is T1, human CLDN18.2. The experiment is described as follows: flow cytometry, hybridoma supernatant on CHO stable cells.

B1: A8抗体 (as tested in Example 6) (antibody, V domains shown)
VH: QVQLQQPGAELVKPGASVKLSCKASGYTFTSYWMHWVRQRPGQGLEWIGMIHPNSGSTNYNGKFKSKATLTVDKSSSTAYMQLSSLTSEDSAVYFCARGGYYGNSLDFWGQGTSLTVSS
VL: DIVMTQSPSSLTVTAREKVTMSCKSSQSLLNSGNQKNYLTWYQQKPGQPPKLLIYWASTRESGVPDRFTGSGSGTDFTLTISSVQAEDLAVYYCQNAYSYPFTFGSGTKLEIK
In the case of B1, the 抗体亲和力 (affinity from FACS titration, EC50-like) with human CLDN18.2 [1] was determined as 0.675 µg/mL.

B2: C18-16-1H1-1A8 (antibody, V domains shown)
VH: QVQLQQPGAELVKPGASVKLSCKASGYTFTSYWMHWVRQRPGQGLEWIGMIHPNSGSTNYNGKFKSKATLTVDKSSSTAYMQLSSLTSEDSAVYFCARGGYYGNSLDFWGQGTSLTVSS
VL: DIVMTQSPSSLTVTAREKVTMSCKSSQSLLNSGNQKNYLTWYQQKPGQPPKLLIYWASTRESGVPDRFTGSGSGTDFTLTISSVQAEDLAVYYCQNAYSYPFTFGSGTKLEIKR
notes: also called A8抗体; C18-16-1H1-1A8重组抗体
As for B2, in the experiment with human CLDN18.2 [2], the binding result is given as “binds”.
